From patent publication US20060105320A1

Target: NM fibers (amyloid fibers of NM; also used sonicated as seed) (Saccharomyces cerevisiae) (UniProt P05453)
Assay: seeded fiber elongation, sedimentation and acrylodan wavelength shift assays, Lineweaver-Burk plot

Chain of NM fibers (amyloid fibers of NM; also used sonicated as seed) (Saccharomyces cerevisiae) (P05453 1-253): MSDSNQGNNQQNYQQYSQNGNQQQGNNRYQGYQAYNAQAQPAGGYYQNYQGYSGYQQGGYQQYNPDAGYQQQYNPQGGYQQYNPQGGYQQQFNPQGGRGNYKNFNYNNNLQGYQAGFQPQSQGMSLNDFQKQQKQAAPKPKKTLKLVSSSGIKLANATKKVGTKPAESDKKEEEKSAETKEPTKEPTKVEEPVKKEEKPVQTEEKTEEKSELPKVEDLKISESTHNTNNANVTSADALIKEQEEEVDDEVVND

## NM^T158C-acrylodan (soluble) (from UniProt P05453 1-253) (other; other documents disagree on this pair)
  Km: 0.12 µM
  kconf/Km (conformational conversion efficiency): 42000 M⁻¹ s⁻¹
